Consider one molecule from patent publication US20250326818A1 (UNIVERSIT T BASEL, published 2025).

In the assay the target is T1, CD123 ECD wt (human, UniProt P26951 19-305).
T1 construct: Recombinant extracellular domain; Biotinylated when captured for the hIL3 assay; also called CD123_WT; recombinant wildtype CD123
T1 sequence: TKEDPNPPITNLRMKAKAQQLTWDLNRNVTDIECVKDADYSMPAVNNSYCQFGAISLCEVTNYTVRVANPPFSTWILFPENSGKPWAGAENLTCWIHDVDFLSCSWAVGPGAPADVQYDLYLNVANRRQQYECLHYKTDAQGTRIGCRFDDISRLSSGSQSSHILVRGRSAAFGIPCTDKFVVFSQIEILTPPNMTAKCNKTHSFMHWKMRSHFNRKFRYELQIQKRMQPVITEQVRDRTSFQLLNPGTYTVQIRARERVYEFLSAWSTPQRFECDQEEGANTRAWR
The experiment in a line: BLI (Octet), flotetuzumab hIgG1 captured on anti-human Fc tips, CD123 ECD as analyte, level at 250 s. On the procedure:
Antibody flotetuzumab hIgG1 was captured by Anti-Human Fc capture biosensor (AHC) (Sartorius, PN: 18-5060) for 300 s at 0.5 μg/mL. Analytes CD123 ECD wt and variants (only CD123 ECD variants at high analyte concentrations) were titrated at 7 concentrations from 50 nM to 0.78 nM or 300 nM to 4.7 nM, respectively. Association to analyte was monitored for 300 s and dissociation for 600 s (CD123 wt) and 900 s (CD123 variants). Double reference subtraction was performed against buffer only well and biosensor loaded with a negative hIgG1 control. Regeneration was performed in 10 mM Gly-HCl pH 1.7. Data were analyzed using the Octet Data Analysis software HT
(In general: Biolayer interferometry detects binding as a change in optical thickness at a sensor tip.)

B1: Flotetuzumab hIgG1 (antibody, V domains shown)
VH: EVQLVQSGAELKKPGASVKVSCKASGYTFTDYYMKWVRQAPGQGLEWIGDIIPSNGATFYNQKFKGRVTITVDKSTSTAYMELSSLRSEDTAVYYCARSHLLRASWFAYWGQGTLVTVSS
VL: DFVMTQSPDSLAVSLGERVTMSCKSSQSLLNSGNQKNYLTWYQQKPGQPPKLLIYWASTRESGVPDRFSGSGSGTDFTLTISSLQAEDVAVYYCQNDYSYPYTFGQGTKLEIK
notes: Tested as hIgG1 in BLI; also called Anti-CD123 antibody (Flotetuzumab)
Take B1: the binding result was “binds”.
